Assay results taken from the DeepSol protein solubility set.

Assay: soluble on expression in E. coli; label from the status in PepcDB or PDB records

| Sequence | soluble on expression in E. coli |
| --- | --- |
| GFIDSHVHLFGGSVELDCLSLYGVKGLDAMRAAIQPYAQANPDDALVFCVMADYDILGTGHTLTRHDLDSILADRPLAMFAPDHHTVWANTAALEATGLLQGGEVDAGSLIVLGEDGLANGELLEPGAYGPILGLTRHGGREMLGLTTGKDPEPPATPDQRARDKDVIARGLAHCAAQGITGLHLMDGNRYQLELLTELEAEGRLLCRCEVPFHMKGTDPVERMTAEAPAMRAAYRGDKVRCNHLKMFIDGVIESGTALMLRPYPGELGANDNTGDEVFTQEHFTACCVEADRLGFQIAVHAIGDAGVRRTIDAFEAARRANGTRDSRHRIEHIEVIHPDDIPRLAELDIVASLQPGHAPRGHVFPPGAVGQYLHPDQIVGAYAWQTIRETGARVVFSTDWPVIPVDVMPSLRAAIAPLDLGPDWPDQSQSLMDTLASYTRDNAWVEFNEDSKGRLKVGMAADIAVLSHDLTALAPDDITQAAAMVTIMDGAVTY | not soluble |
| MRILADENIPVVDAFFADQGSIRRLPGRAIDRAALAEVDVLLVRSVTEVSRAALAGSPVRFVGTCTIGTDHLDLDYFAEAGIAWSSAPGCNARGVVDYVLGCLLAMAEVRGADLAERTYGVVGAGQVGGRLVEVLRGLGWKVLVCDPPRQAREPDGEFVSLERLLAEADVISLHTPLNRDGEHPTRHLLDEPRLAALRPGTWLVNASRGAVVDNQALRRLLEGGADLEVALDVWEGEPQADPELAARCLIATPHIAGYSLEGKLRGTAQIYQAYCAWRGIAERVSLQDVLPETWLAGLQLNPGCDPAWALATLCRAVYDPRSDDAAFRRSLTGDSATRRAAFDALRKHYPPRREITGLRVATGGQAELQRVVRALGAQLV | soluble |
| MSNLEIKQGENKFYIGDDENHALAEITYRFVDNNEINIDHTGVSDELGGQGVGKKLVKAVVEHARENHLKIIASCSFAKHMLEKEDSYQDVYLG | soluble |
| MTKIFEAKVLAVGPEALSMIKDANMLILFGEEAPQDLADYCYKIDNKNLSGHIKKGGHLVINGNDCQITAVGSVVEKNLTGLGHITISLDGSKESSLPGTLHIQAEFPVQLEAGSLIQIFD | soluble |
| MALEYVVTKRVFGFDKDKNEKYVAKSVRSGRVSFSKMCGKVSRLCGVHRKVVDLVVSGLVDMMAEDIDDGKSVQMGEFGIFSPTIRAKSADDEKEVSSKSIVQRKILFYPGKIFKTTLDDMSITRRAELDTDYTDGSSNNGSGSEKPNPGGDGGKDDEEAPDPTV | not soluble |
| MLVQGAGGNTSIKQAGVLWIKASGTWLKNARDDEIMVPVALAPLLDAVSHRSPAAEAAGQFTLADLNPRQLRPSIETTVHALLPQKIVVHVHCVETISIAVQANAEALLEGRLRGLDWAFVPYRRPGLPLAQAIAERLKPATNVLVLGNHGLVVAADTVAEAALLLQRVTGLLARQPRPAPPPDLDALLRLAAGSDYRLPALEHHHHHH | soluble |
| STPELLSGHIPPGHIPKPIVMPDYVAKYPVIQTDDDRERYKAVFQDQFSEYKELSAEVQAILRKFDELDTVMSRLPHHSENRQEHERISRIHEEFRKKKNDPSFLEKKERCDYLKNKLSHIKQRIQEYDKVMNWDTQGYP | soluble |
| MIIVSRAIVLHNTAYNDSYSIAHLFSRESGRVSYLIPRSSKRGKSGGSLRLLISPLNELEITAEHKQHRDLHFIKEAKLCSLHGRIQSDPVRNSIALFLAEFLYLILRLPEADTNLYDFVAFSIDKLEEMDGPMANFHLAFLFRLLVPLGLIPDLQFGGSVIPRWFDPADGRFVPNAPAHGRGIPPHQSTYLQLFSRITFDNMKAFRLSRAERRQVLDYLVDYYRFHLPPFPLLKTPDILSTLFD | not soluble |
| MGSDKIHHHHHHMNINSETKYCQTCGIPLDIDYTNLKADQNEEYCDYCLKNGVKLYDFSMDYLIYLWGLFPEEYYKEVGIRHTSSELREIMSRRLPEIKRWKQKINTAHIQYELVIRVQEYINCHLFDDLDSEKLSQIVCISKYHFRRLFKAVCGDSLGNYIQRLRLEYIAFKLISTNVSVSEILSQINYQNKHTLSRAFKNYFNCSIPEFRKRHSNACSEGKNPIQIEPSIERVPHTRIAYLKLERTHHVSHSFSVLWKQVLQFSESYGLLSKGCKYVSLTLDYPFITLEEQSRFMVGVTLPQSFKIPKGFGVYEVPAGEYAIFRFKGLYHELNRVYRYIYLDWLPANDYSLREPFTFETYINTPEKTPVSELITDIYIPVKKKEI | not soluble |
| MTVLIAGAGIAGLSLGLTLHQIGVPFRIYEATAVLRPMGVGINLQPNAVRELLDLGLEAELDRIGVRTRQLGFYSKLGKTIWEEPRGIWAGYAWPQYSVHRGALQMMLYEALIARAGADCVVTGARAAGFETGPESATLILSDGRRVEGRLLIAADGIHSALRAQMYPNEGEPIWNGRVLWRATTRAPAYFGGGAMAMIGHDDLRLVSYPISEPDGDGMVEMNWIAEKRFPLDAAWKKEDWNRAADIGDFLPDFADWRFDWIDVPALIQGAEVVYEYPMVDRDPLPRWTGGSVTLMGDAAHPTYPVGSNGASQAILDARIIGARLLEHGITPRALAAYEAEVRPVTTAVGQANRAGGGPDGVLQRVEDLCGGDFDDIDTVIPHAELAAHAARYKSIAGFSIEELNARPRTIAEGARIPALEHHHHHH | not soluble |
| MGSDKIHHHHHHMTLRARIQTAVSLVYPARCLNCGGLVESDFGLCGACWRDTTFISGLVCEGCGAPLPGEDDGQMVHCDACLRAPGEWDRGRAALVYTGQGRRLVLALKHGDRTDLVRPASAWMARAARVLLSPKPLLVPVPLHWTRLLHRRYNQSALLAQAIAAREECDCCPDALIRVAKTPMLEGYSRSERRALLSDAIRPNPRMASRLKGRRVLLVDDVMTSGSTLSACARACMDAGAKSTNVAVLARVTGS | not soluble |
| MAGSGVAKQIFALDFEIFGRVQGVFFRKHTSHEAKRLGVRGWCMNTRDGTVKGQLEAPMMNLMEMKHWLENNRIPNAKVSKAEFSQIQEIEDYTFTSFDIKH | soluble |
| MGHHHHHHSHVEIIQKVVVKQILTEASKQELIEYYTEQKRQIEQECDQLHFEQKKMERKSKFQPERVADYFTHELDIRREKKKLIQFQMEQLEVLELGSEIREREMETIIDVQVGDKWDKSIFDKTIVVKDGIIVEIR | soluble |
| MDYDVIANQPVVIDNGSGVIKAGFAGEQQPKVRFANFVGRPKYHRVMAGGLDGDIFIGPKAESNRGLFSIEYPMEHGIVNNWSDMEKIWEYIFGQDQLKIFPEEHPVLLTDAPLNPLKNRERSAEIFFETFNVPALYIQMQAVLSLYATGRTTGVVLDSGDGVTHAVPIVKGFAMKHAIQRMDLAGRDVTEYLRVLLRREGYEFHRSNEFEIVREMKENACYLALDPTKVENNSVKSSYALPDTTKIEISNSLFRAPEVLFKPDLIGTEWPGMAHVVNQSIMKCDVDLRQTLYSNIVLSGGTTLFKGFGDRLLGEMRKIAPADGKIRISASQERNSLTWIGGSIVASLDTFRKMWLGKKEYEDMGASAMHKRFF | not soluble |
| MQFSKMHGLGNDFMVVDAVTQNVYFSPELIRRLADRHTGVGFDQMLVVEPPYDPELDFHYRIFNADGSEVSQCGNGARCFARFVRLKGLTNKREISVSTQTGRMILSVTEDEQVCVNMGEPDFEPQTVPFRAAKAEKTYILRAAEHTVLCGVVSMGNPHCVMQVDDVSVANVALLGPVLENHERFPERANIGFMQVVSRDHIRLRVYERGAGETQACGSGACAAVAVGVVQDLLNENVHVELPGGSLHIRWQGPGHPLYMTGPATHVYDGFIHL | not soluble |
| MGSDKIHHHHHHMTHRRSKSVKIYLVGGAVRDSLLNLPIKDKDYMVVGATPEQMLQLGYRQVGKDFPVFLHPITQQEYALARTERKVGLGYGGFSCYASPDVTLEQDLLRRDLTINAIAQDEEGNLHDPFNGIGDLNARLLRHVSDAFIEDPLRVLRVARFAARFHHLGFQIADSTLQLMQQIAQSGELNALTPERVWQEVDKTLSGSNPEVFFEVLRQCGALKVLFPELDALFGIPQPEKWHPEIDTGLHTLMVLAQAAILTQDKAVRFAALVHDLGKAITPIEHLPKHHGHGQKGLPIIKALCERLRIPNEFRDLALIVSDQHQNVHQAFKLRPETIIKIFDKADFWRKPERLKQLVQACIADMRGRTGFEHQDYPQGEYFSQCFAVASNVNIKAIIQAGFKGEEIKQILHMHRIDAVGQLKRDKQNAVD | not soluble |
| MSLAYQSEYALENEMMNQLEQLGYERVTIRDNKQLLDNFRTILNERHADKLEGNPLTDKEFQRLLTMIDGKSIFESARILRDKLPLRRDDESEIYLSFLDTKSWCKNKFQVTNQVSVEDTYKARYDVTILINGLPLVQVELKRRGIDINEAFNQVKRYRKQNYTGLFRYIQMFIISNGVETRYFSNNDSELLKSHMFYWSDKQNNRINTLQSFAESFMRPCQLAKMISEGHHHHHH | soluble |
| GYMPPIEHLQNPIDKYASQLISADGKVFGSYAHSGDNRIYTRYNEISPDLIKALIATEDVRFRKHSGIDSKGLFRAVVKRGILNQKSGGGGSTITQQLAKLLYSPRTETKLGRLFQKPIEWVIAVKLERFYTKEEIITMYLNYFDFLYNAVGIKSAAYTYFGKQPADLKIEEAAVLVGMCKNPAYYNPVLHGETERCRGRRNIVLEQMYKAKYITKAECDSLQKLPLVTSFHRITHRDGEAPYFRERLRQVLMAKKPERKNYLAWQDDQYRADSIAWETDPVYGWCNKNKKADGSNYNIYTDGLKIYTTIDLRMQQYAEEAMVKQMKEVLQPIFDKEKRGRSYAPFSRDITSDEQRSILLRAMKQTDRWREMKKAGISESEIRASFNKKRKMQVWNWRGTIDTVMSPLDSIKYLKGILRTGFMAMNPHNGHIKAYVGGINFRNFQYDMVSQGRRQVGSTIKPFLYSLSMLEGISPCDEMLHVSQTLFTESGKAWTPKNTGARRTGEMVSIKWGLQNSSNWVTAYLMGRTSPYTFVRLLRS | not soluble |
| SLFFFASQIVREENKLLDLLFNLFKDFNSFKLEVKRRDKNFAENSSNFKKYLAVKLFEKYQLKGVINNPEIIANIEILKEHFLVFTER | not soluble |
| MDRKFNSDEQWYISPLLNLATVKEEMLEVRELGEVIIDRTMDDFDSKTEKEHEMEMWKNSLSYIQGVTEEESLEAIEEVSNLDMFLEGSSDVQTRRFEDMKGDRKFLERSPLVSHKHVISREKTMKTSRQRKSAYVTSLKYDKYMLNAGANTSLFHPQCSILEKCEDDIVLIVDALMPYNRELLSSELRSSRLLKPMTKFLVRGDTLLSDLRQKFVCQSDTIVPLENGLELDPPNLDNATAVRFPSSFIFVHDTFYVDMPPNAIDISHPIRNFMLHREIYDPVEACSMEGVRIIDLKLRLGQPYIFQHSGNCEHLLVFHDLRLLHESDPWGIDKYPFTLYEKGNEKKCDICKKGHVEFVVERHELLPNTYTHFCRTCFQEFNYVHGVKTHSFIAWPYTELQTGEQRGWPFGDFEQEDD | not soluble |
| PEQEEEILGSDDDEQEDPNDYCKGGYHLVKIGDLFNGRYHVIRKLGWGHFSTVWLSWDIQGKKFVAMKVVKSAEHYTETALDEIRLLKSVRNSDPNDPNREMVVQLLDDFKISGVNGTHICMVFEVLGHHLLKWIIKSNYQGLPLPCVKKIIQQVLQGLDYLHTKCRIIHTDIKPENILLSVNEQYIRRLAAEATEWQRSGAPPPSGSAVSTAPATAGNFLVNPLEPKNAEKLKVKIADLGNACWVHKHFTEDIQTRQYRSLEVLIGSGYNTPADIWSTACMAFELATGDYLFEPHSGEEYTRDEDHIALIIELLGKVPRKLIVAGKYSKEFFTKKGDLKHITKLKPWGLFEVLVEKYEWSQEEAAGFTDFLLPMLELIPEKRATAAECLRHPWLNS | soluble |
| TLDEVKSLWDPRGISGTETASPQSDTPQAVSGASQPRWLRLSNGKQVDLRDWKVVLFMQGHCPYCHKFDPVLKQLAGQYGFSVFSYTIDGQGDDAFPEALPAPPDVMQTFFPNIPVATPTTFLVNVNTLAAYPILQGATDAQGFMARVDTVFQ | not soluble |
| MNSQELLAIAVDAIDNKKGEDTISLEMKGISDMTDYFVVTHGNNERQVQAIARAVKEVANEQNIEVKRMEGYNEARWILIDLADVVVHVFHKDERNYYNIEKLYQDAPLESYSQVAYLEHHHHHH | not soluble |
